Measured values from US10501552B2, “Multivalent molecules comprising DR5-binding domains” (MacroGenics, Inc., priority 2015, dated 2019).
Values belong to the molecule of their own block, whether it stands above or below them.

Key:
LNCap [1] = experiment: […]-GLO cell viability assay with vorinostat; format: cell-based, human; settings: LNCap (Prostate); 1 μg/ml + 10 μM Vorinostat
PC3 = experiment: […]-GLO cell viability assay with vorinostat; format: cell-based; settings: PC3 (Prostate); 1 μg/ml + 1 μM Vorinostat
NCI-N87 = experiment: […]-GLO cell viability assay with vorinostat; format: cell-based; settings: NCI-N87 (Stomach); 1 μg/ml + 1 μM Vorinostat
DR5-Fc fusion = experiment: binding to immobilized DR5-Fc fusion in presence of TRAIL; design: species or system human; settings: for amount of immobilized biotinylated antibody: 2 μg/mL biotinylated, 1 μg/mL DR5-Fc fusion coat
Procedure: (§1) The amount of immobilized biotinylated antibody was assessed.

[2] = tested on: human DR5-Fc fusion protein; experiment: competition for binding to immobilized DR5-Fc fusion; settings: for amount of immobilized biotinylated antibody: 1 μg/mL biotinylated DR5 mAb, 1 μg/mL DR5-Fc Fusion coat
Procedure: In order to determine whether the antibodies bound to different DR5 epitopes, a human DR5-Fc fusion protein was prepared and was coated to an immobilized surface.

MDA-MB-175VII = experiment: […]-GLO cell viability assay with vorinostat; format: cell-based; settings: MDA-MB-175VII (Breast); 1 μg/ml + 1 μM Vorinostat
colon cancer tissue = experiment: tissue staining with labeled molecule; format: binding; settings: 5 μg/mL
From the text: (§2) The results presented in FIGS. 15A-15B, 16, and Table 10, thus indicate that a tetravalent DR5-Binding Molecule (bispecific for two epitopes of DR5) was capable of specifically binding to cancer cells.

[3] = tested on: normal tissue (colon, liver, lung, pancreas, kidney, heart); experiment: tissue staining with labeled molecule; format: binding; settings: 5 μg/mL
From the text: as §2

lung cancer tissue = experiment: tissue staining with labeled molecule; format: binding; settings: 5 μg/mL
From the text: as §2

A549 = experiment: […]-GLO cell viability assay with vorinostat; format: cell-based, human; settings: A549 (Lung); 1 μg/ml + 10 μM Vorinostat
Calu3 = experiment: […]-GLO cell viability assay with vorinostat; format: cell-based; settings: Calu3 (Lung); 1 μg/ml + 1 μM Vorinostat
Hs746T = experiment: […]-GLO cell viability assay with vorinostat; format: cell-based; settings: Hs746T (Stomach); 1 μg/ml + 10 μM Vorinostat
[4] = target: cynomolgus monkey DR5 (His-tagged); experiment: Biacore analysis of binding kinetics; design: ka / kd: unit not given here; settings: tested as DR5×CD3 mAb 2 diabody
Procedure: Bispecific DR5×CD3 diabodies were incubated with His-tagged DR5 and the kinetics of binding was determined via Biacore analysis. […] FIG. 6, Panels A-D show the results for human DR5. FIG. 6, Panels E-H show the results for cynomolgus monkey DR5.

DU145 = experiment: MTS cell proliferation assay; format: cell-based, human; settings: DU145 (Prostate); 1 μg/ml, ±10 μg/ml αmFc; two days
Procedure: (§3) Cell lines obtained from ATCC were cultured under standard tissue culture conditions. Each cell line was plated at ˜2×10^4 cells/well (in 96-well plates), and incubated overnight in F12/DMEM media supplemented with 10% FBS. […] Cell viability was determined using Promega CellTiter 96® AQeous Non-Radioactive Cell Proliferation Assay (Cat # G5430) essentially as described in the manufacturer's instructions to assay the amount of soluble formazan produced by cellular reduction of the MTS, which is a measure of the number of viable cells in the culture. Briefly, MTS/PMS regent was added to the wells and the absorbance at 490 nm (referenced at […]) was read in a Molecular Devices ThermoMax microplate reader.
(§4) Similar studies were performed over a range of anti-DR5 mAb concentrations from ˜10^−3 nM to ˜10^2 nM. The data for COLO205 cells is provided in FIG. 13, and are representative of cell lines sensitive to the antibodies of the invention.
(§5) The cytotoxicity of tetravalent DR5-Binding Molecules of the present invention was investigated. […] His-tagged TRAIL (R&D systems) was used as a positive control.
(§6) Similar studies were performed over a range of anti-DR5 mAb concentrations from ˜10^−3 nM to ˜10^2 nM.

LNCap [5] = experiment: MTS cell proliferation assay; format: cell-based, human; settings: LNCap (Prostate); 1 μg/ml, ±10 μg/ml αmFc; two days
Procedure: as §3, §4, §5, §6

[6] = tested on: cell lines obtained from ATCC; experiment: MTS cell proliferation assay, panel of cell lines; format: cell-based; settings: for inhibition of cell growth, antibody alone: any of cell lines examined, not cross-linked; for cytotoxicity when cross-linked: cross-linked by goat anti-mouse IgG Fc antibody
Procedure: as §3, §4, §5

histidine tagged TRAIL = histidine tagged TRAIL (Homo sapiens, UniProt P50591); experiment: binding to TRAIL-His coat; settings: 2 μg/mL biotinylated; 1 μg/mL TRAIL-His coat
Procedure: as §1

BT474 = experiment: […]-GLO cell viability assay with vorinostat; format: cell-based; settings: BT474 (Breast); 1 μg/ml + 10 μM Vorinostat
[7] = tested on: target tumor cells (A549, SKMES, DU145, A375, SKBR3, JIMT); experiment: LDH release cytotoxicity with PBMC, comparison of DR5×CD3 diabodies; format: cell-based, human; settings: VL and VH Domains tested as DR5×CD3 mAb 2 diabodies, 24 hours, 20:1
Procedure: In order to make such a comparison, a bispecific DR5×CD3 diabody having the structure shown in FIG. 1 containing the VL and VH Domains of these anti-DR5 antibodies and the VL and VH Domains of CD3 mAb 2 were prepared essentially as described above. The first and second The prepared diabodies were designated “DR5 mAb 1×CD3 mAb 2”; “DR5 mAb 2×CD3 mAb 2”; “DR5 mAb 3×CD3 mAb 2”; and “DR5 mAb 4×CD3 mAb 2”.
Target tumor cells were incubated with one of these diabodies or with the control diabody (4-4-20×CD3 mAb 2) in the presence of peripheral blood mononuclear cells (PBMC) and target tumor cells for 24 hours at an effector to target cell ratio of 20:1. The percentage cytotoxicity was determined by measuring the release of lactate dehydrogenase (LDH) into the media by damaged cells.
The employed target tumor cells were: A549 adenocarcinomic human alveolar basal epithelial cells (FIG. 10A), SKMES human lung cancer cells (FIG. 10B), DU145 human prostate cancer cells (FIG. 10C), A375 human malignant melanoma cells (FIG. 10D), SKBR3 human HER2-overexpressing breast carcinoma cells (FIG. 10E), and JIMT human breast carcinoma cells (FIG. 10F).

786O = experiment: […]-GLO cell viability assay with vorinostat; format: cell-based; settings: 786O (Kidney); 1 μg/ml + 1 μM Vorinostat
MCF7 = experiment: […]-GLO cell viability assay with vorinostat; format: cell-based; settings: MCF7 (Breast); 1 μg/ml + 10 μM Vorinostat

Chain of DR5-Fc fusion (as listed by the source): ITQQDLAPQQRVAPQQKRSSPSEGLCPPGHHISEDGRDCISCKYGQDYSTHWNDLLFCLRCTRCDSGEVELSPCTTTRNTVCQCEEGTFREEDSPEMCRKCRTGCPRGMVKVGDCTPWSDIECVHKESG
Chain of human DR5-Fc fusion protein (as listed by the source): as above
Chain of histidine tagged TRAIL (P50591 114-281 limits assumed): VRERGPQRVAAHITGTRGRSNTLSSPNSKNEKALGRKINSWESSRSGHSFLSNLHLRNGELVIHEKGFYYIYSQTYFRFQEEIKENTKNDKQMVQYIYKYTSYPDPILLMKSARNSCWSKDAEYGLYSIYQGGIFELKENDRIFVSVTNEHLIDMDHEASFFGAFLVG

effect of histidine tagged TRAIL on amount bound to immobilized DR5-Fc (DR5-Fc fusion): not affected | amount of immobilized biotinylated antibody (DR5-Fc fusion; 20 μg/mL TRAIL-His): 2.052 | amount of immobilized biotinylated antibody (DR5-Fc fusion; Buffer): 2.052 | epitope comparison by competition [2]: bind to different epitopes | amount of immobilized biotinylated antibody ([2]; 10 μg/mL competitor DR5 mAb 1): 2.377 | amount of immobilized biotinylated antibody ([2]; 10 μg/mL competitor mIgG): 2.102 | Kd [4]: 0.42 nM | ka [4]: 2.4 × 10^5 | kd [4]: 1.0 × 10^−4 | amount of immobilized biotinylated antibody (histidine tagged TRAIL): 0.008
B1: DR5 mAb 2: murine anti-human DR5 monoclonal antibody; VL SEQ ID NO:13, VH SEQ ID NO:18 (antibody, listed as Mus musculus, V domains shown)
VH: KVQLQQSGAELVKPGASVKLSCKASGYTFTEYILHWVKQKSGQGLEWIGWFYPGNNNIKYNEKFKDKATLTADKSSSTVYMELSRLTSEDSAVYFCARHEQGPGYFDYWGQGTTLTVSS
VL: DIVMTQSHKFMSTSVGDRVSITCKASQDVNTAVAWYQQKPGQSPKLLIYWASTRHTGVPDRFTGSGSGTDYTLTIKSVQAEDLTLYYCQQHYITPWTFGGGTKLEIK
modifications: (1)..(119) Anti-DR5 Antibody mAb 2 Heavy Chain Variable Region; (1)..(107) Anti-DR5 Antibody mAb 2 Light Chain Variable Region
Net Gain (Average % Growth Inhibition) (LNCap [1]): 4.49% | Net Gain (Average % Growth Inhibition) (PC3): 1.59% | Net Gain (Average % Growth Inhibition) (NCI-N87): 0.36% | Net Gain (Average % Growth Inhibition) (MDA-MB-175VII): 0.95% | labeling of cells of colon cancer tissue (colon cancer tissue): strongly label | labeling of cells of normal tissue [3]: failed to label | labeling of cells of lung cancer tissue (lung cancer tissue): strongly label | Net Gain (Average % Growth Inhibition) (A549): 6.48% | Net Gain (Average % Growth Inhibition) (Calu3): 0.11% | Net Gain (Average % Growth Inhibition) (Hs746T): 0.20% | % Inhibition (Average) (DU145): 2.09% | % Inhibition (Average) (LNCap [5]): 1.72% | inhibition of cell growth, antibody alone [6]: neither DR5 mAb 1, nor DR5 mAb 2 alone is capable of inhibiting cell growth | cytotoxicity when cross-linked [6]: potent cytotoxicity | Net Gain (Average % Growth Inhibition) (BT474): 2.23% | potency in inducing cytotoxicity versus reference DR5 mAbs [7]: more potent | Net Gain (Average % Growth Inhibition) (786O): 2.33% | Net Gain (Average % Growth Inhibition) (MCF7): 5.00%

effect of histidine tagged TRAIL on amount bound to immobilized DR5-Fc (DR5-Fc fusion): not affected | amount of immobilized biotinylated antibody (DR5-Fc fusion; 20 μg/mL TRAIL-His): 1.939 | amount of immobilized biotinylated antibody (DR5-Fc fusion; Buffer): 2.118 | epitope comparison by competition [2]: bind to different epitopes | amount of immobilized biotinylated antibody ([2]; 10 μg/mL competitor DR5 mAb 2): 0.826 | amount of immobilized biotinylated antibody ([2]; 10 μg/mL competitor mIgG): 2.162 | Kd [4]: 32.5 nM | ka [4]: 4.0 × 10^6 | kd [4]: 1.3 × 10^−1 | amount of immobilized biotinylated antibody (histidine tagged TRAIL): 0.007
B2: DR5 mAb 1: anti-human DR5 monoclonal antibody; VL SEQ ID NO:3, VH SEQ ID NO:8 (antibody, listed as Mus musculus, V domains shown)
VH: EVKFLESGGGLVQPGGSLKLSCVASGFDFSRYWMSWVRQAPGKGLEWIGEINPDSNTINYTPSLKDKFIISRDNAKNTLYLQMTKVRSEDTALYYCTRRAYYGNPAWFAYWGQGTLVTVSS
VL: DIVLTQSPASLAVSLGQRATISCRASKSVSSSGYSYMHWYQQKPGQPPKVLIFLSSNLDSGVPARFSGSGSGTDFTLNIHPVEDGDAATYYCQHSRDLPPTFGGGTKLEIK
modifications: (1)..(121) Anti-DR5 Antibody mAb 1 Heavy Chain Variable Region; (1)..(111) Anti-DR5 Antibody mAb 1 Light Chain Variable Region
Net Gain (Average % Growth Inhibition) (LNCap [1]): 3.81% | Net Gain (Average % Growth Inhibition) (PC3): 1.59% | Net Gain (Average % Growth Inhibition) (NCI-N87): 0.12% | Net Gain (Average % Growth Inhibition) (MDA-MB-175VII): 0.95% | labeling of cells of colon cancer tissue (colon cancer tissue): strongly label | labeling of cells of normal tissue [3]: failed to label | labeling of cells of lung cancer tissue (lung cancer tissue): strongly label | Net Gain (Average % Growth Inhibition) (A549): 6.48% | Net Gain (Average % Growth Inhibition) (Calu3): 0.11% | Net Gain (Average % Growth Inhibition) (Hs746T): 0.20% | % Inhibition (Average) (DU145): 1.66% | % Inhibition (Average) (LNCap [5]): 2.1% | inhibition of cell growth, antibody alone [6]: neither DR5 mAb 1, nor DR5 mAb 2 alone is capable of inhibiting cell growth | cytotoxicity when cross-linked [6]: potent cytotoxicity | Net Gain (Average % Growth Inhibition) (BT474): 2.15% | potency in inducing cytotoxicity versus reference DR5 mAbs [7]: more potent | Net Gain (Average % Growth Inhibition) (786O): 0.64% | Net Gain (Average % Growth Inhibition) (MCF7): 4.55%
